The text below walks through data of patent US20200071394A1.

Usually EC50 stands for the concentration needed to bring the measured effect to its halfway point. In general, Kd refers to the concentration at which binding is half-saturated. A word on the koff: it is the rate constant with which the complex falls apart. Broadly, the kon is a measure of how fast the partners come together.

Where two headings read alike, the source gives them in different places.

Assay [1] concerns the target Recombinant Human IL-17A, Sino Biological, 12047-HNAS (human) (UniProt Q16552). Kind of assay: indirect ELISA, human IL-17A coated. (An ELISA detects its analyte on a solid surface through an enzyme-linked reagent.)
Assay [2] has the same target. The assay can be described thus: cell-based or functional assay.
Assay [3] has the same target. Kind of assay: indirect ELISA, human IL-17A coated. This is another data set of the same source.
Assay [4] has the same target. Kind of assay: SPR (Biacore), antibody captured by anti-human antibody on the chip, IL-17A as analyte, 1:1 model.

Chain of Recombinant Human IL-17A, Sino Biological, 12047-HNAS (human) (Q16552 24-155 limits assumed, form in doubt): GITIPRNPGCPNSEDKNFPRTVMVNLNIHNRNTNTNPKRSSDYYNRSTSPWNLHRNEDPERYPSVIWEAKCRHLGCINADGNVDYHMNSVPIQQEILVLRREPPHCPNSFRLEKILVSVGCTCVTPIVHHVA

Consider “Novartis humanized anti-IL-17 antibody (Novartis mAb)”, for which the EC50 in assay [1] is 0.0329 µg/mL. In assay [2], the IC50 of IL-6 release by HT1080 cells stimulated with IL-17A and TNFα turned out to be 0.52 µg/mL; the IC80 of IL-6 release by HT1080 cells stimulated with IL-17A and TNFα was 2.11 µg/mL; the IC90 of IL-6 release by HT1080 cells stimulated with IL-17A and TNFα came out at 4.8 µg/mL. In addition, in assay [3], the EC50 was 0.0341 µg/mL. Further, in assay [4], the Kd is 0.111 nM, the koff came out at 0.000161 s⁻¹ and the kon amounted to 1.46e+06 M⁻¹ s⁻¹.
